Assay [1] has as its target human CD40 protein expressed on cells (human) (UniProt P25942). Description: flow cytometry on CHO-S cells transiently expressing human CD40; AF647 anti-human IgG (H+L) secondary; GeoMean RL1-H. Background: A flow cytometer gives signals particle by particle.
Assay [2] concerns the target cynomolgus CD40 protein expressed on CHO-S cells (cynomolgus) (UniProt G7PG38). Description: flow cytometry on CHO-S cells transiently expressing cynomolgus CD40; AF647 anti-human IgG (H+L) secondary; GeoMean RL1-H.

These results are taken from patent publication US20210214454A1.

human CD40 protein expressed on cells (human), sequence (P25942 21-277 limits assumed): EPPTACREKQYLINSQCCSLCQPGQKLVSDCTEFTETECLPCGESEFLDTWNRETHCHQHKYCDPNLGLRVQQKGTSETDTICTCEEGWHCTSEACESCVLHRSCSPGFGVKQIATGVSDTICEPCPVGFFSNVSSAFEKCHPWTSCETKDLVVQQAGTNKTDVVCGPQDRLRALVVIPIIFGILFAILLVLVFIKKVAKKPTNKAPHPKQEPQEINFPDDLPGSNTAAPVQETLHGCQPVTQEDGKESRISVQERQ

For the substance selicrelumab analogue (antibody), the results for the EC50 (read off the curve) in assay [1] and in assay [2] were 0.07 µg/mL and 0.08 µg/mL, respectively.

Usually EC50 (read off the curve) stands for the concentration needed to bring the measured effect to its halfway point.
